Positions count from the first letter of the chain named.
What was measured:
[1] = biological target: T1, human TRAIL-R2 on the surface of cells (Colo205, U251, Jurkat, normal human hepatocytes) (human, UniProt O14763 56-440); assay: cell-based or functional assay
[2] = biological target: T2, TRAIL-R1-hFc, fusion protein of the extracellular region of human TRAIL-R1 and the Fc region of human IgG1 (human, UniProt O00220 24-239); assay: ELISA, TRAIL-R1-hFc coated plate, purified antibody
T2 construct: extracellular domain; Bought (ALEXIS); not shown: Fc region of human IgG1
T2 sequence (looked up): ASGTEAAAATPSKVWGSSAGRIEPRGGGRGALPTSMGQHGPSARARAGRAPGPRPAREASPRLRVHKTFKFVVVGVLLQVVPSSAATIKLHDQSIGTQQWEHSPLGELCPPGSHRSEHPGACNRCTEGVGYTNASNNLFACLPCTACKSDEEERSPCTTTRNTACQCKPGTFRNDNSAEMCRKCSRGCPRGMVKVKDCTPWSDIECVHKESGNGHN

[3] = biological target: T1, human TRAIL-R2 on the surface of cells …; assay: cell-based or functional assay; remark: listed apart in the source
[4] = biological target: T3, TRAIL-R2-hFc, fusion protein of the extracellular region of human TRAIL-R2 and the Fc region of human IgG1 (human, UniProt O14763 56-210); assay: SPR (BIACORE 2000), TRAIL-R2-hFc immobilised on CM5, bivalent model
T3 construct: extracellular domain; Bought (ALEXIS) or made with TRAIL-R2 amino acids 1 to 183 as the extracellular region; not shown: Fc region of human IgG1
Experimental: TRAIL-R1-hFc or TRAIL-R2-hFc was diluted at a final concentration of 10 μg/ml with 10 mM Acetic Acid (pH 4.0), and then immobilized on a sensor chip CM5 by the amine coupling method. The immobilization conditions are as follows. NHS activation and ethanolamine blocking were performed according to the methods described in the instructions. Coupling of TRAIL-R1-hFc and that of TRAIL-R2-hFc were performed by manual injection as described in the instructions.
Each antibody of the dilution series was added in order at a flow rate of 20 μl/minute by the KINJECT method (binding for 2 minutes and dissociation for 6 minutes), thereby obtaining a sensorgram. […] Each antibody of the dilution series was added in order at a flow rate of 20 μl/minute by the KINJECT method (binding for 2 minutes and dissociation for 2 minutes), thereby obtaining sensorgrams. For each antibody, kinetics analysis was performed using each sensorgram and BIAevaluation software ver3.2 (Biacore). As a fitting model, global fitting was performed using a Bivalent model, so that the binding rate constant and the dissociation rate constant were found. In addition, a dissociation constant (Kd value) was calculated from the two constants. Also, the sensorgrams were used for fitting after the subtraction of control cells and buffer correction. In the tables, “kass” indicates the binding rate constant, “kdiss” indicates the dissociation rate constant, and “KD” indicates the dissociation constant.

[5] = biological target: T3, TRAIL-R2-hFc, fusion protein of the …; assay: ELISA on a plate coated with TRAIL-R2-hFc, detection with HRP-labeled goat anti-human Ig kappa, absorbance at 450 nm (method of Example 18)
Experimental: 50 μl of the thus prepared solution was added to each well of a 96-well microplate for ELISA (Maxisorp, Nunc) and incubated for 1 hour at room temperature or at 4° C. overnight, thereby coating TRAIL-R1-hFc or TRAIL-R2-hFc to the microplate. […] Thus, a microplate having each well coated with TRAIL-R1-hFc or TRAIL-R2-hFc was prepared.
The culture supernatant of each hybridoma (50 μl) was added to each well, reaction was performed at room temperature for 1 hour, and then each well was washed three times in 0.1% Tween20-containing PBS (PBS-T). Subsequently, horseradish peroxidase-labeled goat anti-human Igκ antibodies (50 μl/well, Biosource International) were diluted 2000 times in PBS-T containing 10% Block Ace (Dainippon Pharmaceutical Co., Ltd.). 50 μl of the thus prepared solution was added to each well, and incubation was then performed at room temperature for 30 minutes; The microplate was washed three times with PBS-T, and then 50 μl of a TMB chromogenic substrate solution (DAKO) was added to each well, followed by incubation at room temperature for 20 minutes. 0.5M sulfuric acid was added (50 μl/well) to each well to stop reaction.
For the measurement of the binding activity, 96-well microplate for ELISA (Maxisorp, Nunc) to which TRAIL-R2-hFc was coated was used.

[6] = biological target: T2, TRAIL-R1-hFc, fusion protein of the …; assay: ELISA, TRAIL-R1-hFc coated plate, hybridoma culture supernatant

B1: human anti-TRAIL-R2 monoclonal antibody KMTR1 (antibody, IgG1, V domains shown)
VH: EVQLLESGGGLVQPGRSLRLSCAASGFTFSSYAMSWVRQAPGKGLEWVSAISGSGGSRYYADSVKGRFTISRDNSKNTLYLQMNSLRAEDTAVYYCAKESSGWFGAFDYWGQGTLVTVSS
VL: EIVLTQSPDFQSVTPKEKVTITCRASQSIGSSLHWYQQKPDQSPKLLIKYASQSFSGVPSRFSGSGSGTDFTLTINSLEAEDAAAYYCHQSSSLPITFGQGTRLEIK
notes: IgG1, human kappa light chain
LD50, Colo205 cells, 48 h, with goat anti-human IgG cross-linker [1]: 0.04 µg/mL | LD50, normal human hepatocytes, 24 h, with goat anti-human IgG cross-linker [1]: > 10 µg/mL | binding result [2]: binds

B2: human anti-TRAIL-R2 monoclonal antibody E-11-13 (antibody, IgG1, V domains shown)
VH: QLQLQESGPGLVKPSETLSLTCTVSGGSIISKSSYWGWIRQPPGKGLEWIGSIYYSGSTFYNPSLKSRVTISVDTSKNQFSLKLSSVTAADTAVYYCARLTVAEFDYWGQGTLVTVSS
VL: EIVLTQSPATLSLSPGERATLSCRASQSVSSFLAWYQQKPGQAPRLLIYDASNRATGIPARFSGSGSGTDFTLTISSLEPEDFAVYYCQQRSNWPLTFGPGTKVDIK
notes: Hybridoma FERM BP-7698 / BP-7770; also called E-11-3
LD50, Jurkat cells, 48 h [3]: 0.1 µg/mL | LD50, U251 cells, 48 h [3]: 0.3 µg/mL | LD50, Colo205 cells, 48 h, with goat anti-human IgG cross-linker [1]: 0.11 µg/mL | LD50, normal human hepatocytes, 24 h, with goat anti-human IgG cross-linker [1]: 2.8 µg/mL | Kd [4]: 0.0729 nM | koff [4]: 3.84e-05 s⁻¹ | kon [4]: 527000 M⁻¹ s⁻¹

B3: human anti-TRAIL-R2 monoclonal antibody 0304 (from the hybridoma) (antibody, IgG4, V domains shown)
VH: QVQLVQSGAEMKKPGASVKVSCKTSGYTFTNYKINWVRQAPGQGLEWMGWMNPDTDSTGYPQKFQGRVTMTRNTSISTAYMELSSLRSEDTAVYYCARSYGSGSYYRDYYYGMDVWGQGTTVTVSS
VL: B2 VL with F32Y, P100G, D105E
notes: IgG4, human kappa light chain
LD50, Colo205 cells, 48 h, with goat anti-human IgG cross-linker [1]: 0.02 µg/mL | LD50, normal human hepatocytes, 24 h, with goat anti-human IgG cross-linker [1]: 0.002 µg/mL | binding result [2]: no binding

B4: recombinant 0304 antibody of which subclass is IgG1 (antibody, V domains shown)
VH: B3 VH
VL: B2 VL with F32Y, P100G, D105E
EC50 (read off the curve) [5]: ~0.03 µg/mL

B5: recombinant 0304 antibody of which subclass is IgG4 (antibody, V domains shown)
VH: B3 VH
VL: B2 VL with F32Y, P100G, D105E
EC50 (read off the curve) [5]: ~0.03 µg/mL

B6: human anti-TRAIL-R2 monoclonal antibody L-30-10 (antibody, IgG1, V domains shown)
VH: QLQLQESGPGLVKPSETLSLTCTVSGGSISSRSNYWGWIRQPPGKGLEWIGNVYYRGSTYYNSSLKSRVTISVDTSKNQFSLKLSSVTVADTAVYYCARLSVAEFDYWGQGILVTVSS
VL: B2 VL with I58S, N93D
notes: Hybridoma FERM BP-7700 / BP-7769
LD50, Jurkat cells, 48 h [3]: 0.13 µg/mL | LD50, U251 cells, 48 h [3]: 0.17 µg/mL | LD50, Colo205 cells, 48 h, with goat anti-human IgG cross-linker [1]: 0.1 µg/mL | LD50, normal human hepatocytes, 24 h, with goat anti-human IgG cross-linker [1]: 24 µg/mL | Kd [4]: 2.35 nM | koff [4]: 0.00144 s⁻¹ | kon [4]: 613000 M⁻¹ s⁻¹

B7: human anti-TRAIL-R2 monoclonal antibody H-48-2 (antibody, IgG1, V domains shown)
VH: QLQLQESGPGLVKPSETLSLTCTVSGGSISSSSYYWGWVRQPPGKGLEWIGSIHYSGSTFYNPSLKSRVTISVDTSKNQFSLKLSSVTAADTTVYYCARQGSTVVRGVYYYGMDVWGQGTTVTVSS
VL: not shown
notes: IgG1, human kappa light chain; Hybridoma FERM BP-7599; also called H-48-2-IgG1
binding result [6]: no binding
